# Experimental data as given in publication PMC11965557 (Communications Biology, 2025).
# Assays:
# [1] = target: cGAS-pMag (pMag fused to the C-terminus of full-length cGAS) (UniProt Q8N884); experiment: dcFCCS
# [2] = target: Cyclic GMP-AMP synthase (cGAS), full-length (amino acids 1-522) (UniProt Q8N884 1-522); experiment: dcFCCS
Molecule,fold increase of the proportion forming heterodimer under blue light [1] [fold],Kd [2] [nM]
nMagHigh1-ORF9 (nMagHigh1 fused to the N-terminus of VZV-ORF9),5,
nMagHigh1-ORF52 (nMagHigh1 fused to the N-terminus of KSHV-ORF52),5,
nMagHigh1-VP22 (nMagHigh1 fused to the N-terminus of HSV1-VP22),5,
"Varicella-Zoster virus ORF9 (VZV-ORF9) (natural protein, AF488 NHS ester label) MASSDGDRLCRSNAVRRKTTPSYSGQYRTARRSVVVGPPDDSDDSLGYITTVGADSPSPVYADLYFEHKNTTPRVHQPNDSSGSEDDFEDIDEVVAAFREARLRHELVEDAVYENPLSVEKPSRSFTKNAAVKPKLEDSPKRAPPGAGAIASGRPISFSTAPKTATSSWCGPTPSYNKRVFCEAVRRVAAMQAQKAAEAAWNSNPPRNNAELDRLLTGAVIRITVHEGLNLIQAANEADLGEGASVSKRGHNRKTGDLQGGMGNEPMYAQVRKPKSRTDTQTTGRITNRSRARSASRTDTRK",,~2000
"Herpes simplex virus type 1 VP22 (HSV1-VP22) (natural protein, AF488 NHS ester label) MTSRRSVKSGPREVPRDEYEDLYYTPSSGMASPDSPPDTSRRGALQTRSRQRGEVRFVQYDESDYALYGGSSSEDDEHPEVPRTRRPVSGAVLSGPGPARAPPPPAGSGGAGRTPTTAPRAPRTQRVATKAPAAPAAETTRGRKSAQPESAALPDAPASTAPTRSKTPAQGLARKLHFSTAPPNPDAPWTPRVAGFNKRVFCAAVGRLAAMHARMAAVQLWDMSRPRTDEDLNELLGITTIRVTVCEGKNLLQRANELVNPDVVQDVDAATATRGRSAASRPTERPRAPARSASRPRRPVE",,~2000
